Substitutions are numbered along the chain they refer to. Names may count otherwise.

Assay [1] concerns the target T1, human CS1 ECD-huIgG1 (human, UniProt Q9NQ25 23-226).
T1 construct: Its preparation is not described; also called HuCS1Fc; HuCS1-Fc; not shown: constant region of human IgG1 (huIgG1 Fc)
The assay can be described thus: hybridoma screen of Example 1 (ELISA on ECD-huIgG1 fusions, flow cytometry on OPM-2 cells); member named in Table 5. Here is the method:
Specificity of antibodies secreted by hybridomas was determined by binding to human CS1 ECD-huIgG1 and CmCS1 ECD-huIgG1, and not to negative control CLL1 ECD-huIgG1 by ELISA. […] Hybridoma supernatants were allowed to bind to the proteins and detected with an HRP conjugated donkey anti mouse IgG (H+L) antibody. Hybridomas that recognized both human and cynomolgus but not CLL fusion proteins were further tested for binding to the huCS1 molecule on an endogenously expressing OPM-2 cells using standard flow cytometry protocols. Briefly, OPM-2 cells were incubated with hybridoma supernatants for 30 minutes on ice. After extensive washing, cells were incubated with phycoerythrin conjugated goat anti mouse IgG specific antibodies for 30 minutes on ice. Cells were washed again and analyzed on a Becton Dickinson FACSCalibur for the presence of cell surface bound antibodies.

The target in assay [2] is T2, human CS1 (HuCS1) (human, UniProt Q9NQ25 23-335).
T2 construct: also called FL-HuCS1; SLAMF7
Put plainly: FACS, binding relative to Hu34C3; cells not given.

In assay [3] the target is T2, human CS1 (HuCS1). The assay can be described thus: flow cytometry on L-363 cells, PE goat anti-human Fc detection. The protocol: (§1) L-363 cells were incubated with different amounts of test antibody on ice for 30 min. Cells were washed three times with PBS+1% FBS. A PE-conjugated goat anti-human Fc antibody was added to the cells and incubated for 30 min on ice. Cells were washed three times with PBS+1% FBS, and binding was quantitated by flow cytometry.

For assay [4], the target named is T2, human CS1 (HuCS1). Put plainly: flow cytometry on L-363 cells; maximum fluorescent value at any tested concentration. Here is the method: as §1
The target of assay [5] is T2, human CS1 (HuCS1). The assay can be described thus: flow cytometry on L-363 cells; GeoMean (max) relative to elotuzumab. The protocol:
as §1

In assay [6] the target is T2, human CS1 (HuCS1). The assay can be described thus: flow cytometry on 293s cells transfected with human CS1.

B1: CS1.AD159.27A12 (antibody, V domains shown)
VH: EVKLVESEGGLVQPGSSMKLSCTASGFTFSDYYMAWVRQVPEKGLEWVAEINYDGSSTYYLDSLKSRFIISRDNAKNILYLQMSNLKSEDTATYYCARDRGFYFDYWGQGTTLTVSS
VL: DVVMTQTPLSLPVSLGDQASISCRSSQSLVHNNGNTYLHWYLQKPGQSPKLLIYKVSNRFSGVPDRFSGSGSGTDFTLKISRVEAEDLGVYFCSQSTHVPPYTFGGGTKLEIK
notes: Murine hybridoma antibody; also called Mu27A12
Regarding B1, the binding result in assay [1] is reported as “binds”.

B2: Hu34C3 S55E (antibody, V domains shown)
VH: EVQLVESGGGLVQPGGSLRLSCAASGFTFSDYYMAWVRQAPGKGLEWVASINYDGESTYYVDSVKGRFTISRDNAKNSLYLQMNSLRAEDTAVYYCARDRGYYFDYWGQGTTVTVSS
VL: B1 VL with P12S, S14T, L15P, D17Q, Q18P, N32S, K50Q, L88V, Y102F, L110V
For the molecule B2, the “% Binding” value in assay [2] amounted to 125%.

B3: CS1.AD159.31D2 (antibody, V domains shown)
VH: B1 VH with E50D, S56G, Y80C, N85S, F102Y
VL: B1 VL with N32S, Y102F
notes: Murine hybridoma antibody; also called Mu31D2
Regarding B3, in assay [1], the binding result is listed as “binds”.

B4: HuCS1.27A12 (antibody, V domains shown)
VH: B2 VH with S50E, E56S, Y102F
VL: B1 VL with P12S, S14T, L15P, D17Q, Q18P, K50Q, L88V, L110V
notes: Humanized antibody; It has a human Fc (detected with anti-human Fc); also called Hu27A12
Molecule B4 showed a half-maximal effective concentration (EC50) in assay [3] of 4.7 nM. Moreover, in assay [4], the “GeoMean (max)” value was determined as 24.8. For the same molecule, the “% of Elotuzumab” value in assay [5] came out at 142%.

B5: Hu34C3 N30L (antibody, V domains shown)
VH: B2 VH with E56S
VL: DVVMTQTPLSLSVTPGQPASISCRSSQSLVHSNGLTYLHWYLQKPGQSPQLLIYKVSNRFSGVPDRFSGSGSGTDFTLKISRVEAEDVGVYFCSQSTHVPPFTFGGGTKVEIK
For B5, in assay [2], the “% Binding” value turned out to be 128%.

B6: Hu34C3 S55E/N30L (antibody, V domains shown)
VH: B2 VH
VL: B5 VL
notes: Double mutant of Hu34C3
For the molecule B6, the “% Binding” value in assay [2] came to 134%.

B7: CS1.AD159.34C3 (antibody, V domains shown)
VH: B1 VH with E50S, Y80F, S84N, N85S, F102Y
VL: B1 VL with N32S, Y102F
notes: Murine hybridoma antibody; also called Mu34C3
With B7, the binding result in assay [1] was “binds”.

B8: CS1.AD159.12D10 (antibody, V domains shown)
VH: B1 VH with Y33F, E50S, S56N, Y60F, N85S
VL: B1 VL with S25F, N32R, P100R, K113R
notes: Murine hybridoma antibody; also called Mu12D10
For the molecule B8, the binding result in assay [1] was “binds”.

B9: HuCS1.31D2.2 (antibody, V domains shown)
VH: B2 VH with S50D, E56G, V61L, V64L, G66S, T112L
VL: B5 VL with T7S, S12P, Q17E, L35N
notes: Humanized antibody; It has a human Fc (detected with anti-human Fc); also called Hu31D2
The molecule B9 gave an EC50 in assay [3] of 3.1 nM. The “GeoMean (max)” value in assay [4] stood at 28. Further, the “% of Elotuzumab” value in assay [5] was determined as 160%.

B10: CS1.AD159.14C11 (antibody, V domains shown)
VH: B1 VH with E50S, N85G, Y95S
VL: B1 VL with N32R
notes: Murine hybridoma antibody; also called Mu14C11
With B10, the binding result in assay [1] is “binds”.

B11: elotuzumab (antibody, IgG1, V domains shown)
VH: EVQLVESGGGLVQPGGSLRLSCAASGFDFSRYWMSWVRQAPGKGLEWIGEINPDSSTINYAPSLKDKFIISRDNAKNSLYLQMNSLRAEDTAVYYCARPDGNYWYFDVWGQGTLVTVSS
VL: DIQMTQSPSSLSASVGDRVTITCKASQDVGIAVAWYQQKPGKVPKLLIYWASTRHTGVPDRFSGSGSGTDFTLTISSLQPEDVATYYCQQYSSYPYTFGQGTKVEIKR
notes: also called HuLuc63
As to B11, a half-maximal response in assay [3] (EC50) required 35.9 nM. The “GeoMean (max)” value in assay [4] turned out to be 17.5. For the same molecule, the “% of Elotuzumab” value in assay [5] worked out at 100%.

B12: HuCS1.34C3 (antibody, human IgG1, kappa, V domains shown)
VH: B2 VH with E56S
VL: DVVMTQTPLSLSVTPGQPASISCRSSQSLVHSNGNTYLHWYLQKPGQSPQLLIYKVSNRFSGVPDRFSGSGSGTDFTLKISRVEAEDVGVYFCSQSTHVPPFTFGGGTKVEIKR
notes: Humanized IgG1; also called Hu34C3
For B12, the “concentration at which 80% of maximal binding occurred” value in assay [6] worked out at 10 µg/mL. Further, in assay [3], the midpoint of the response, the EC50, lay at 2.5 nM. In addition, in assay [4], the “GeoMean (max)” value was 43.5. Further, the “% of Elotuzumab” value in assay [5] was 249%.

For the origin of these results see patent publication US20160122430A1 (AbbVie / Abbott, published 2016).
